In paper PMC10524356:

Key:
[1] = molecular target: HIV-2 Gag polyprotein in immature particles (HIV-2 ROD); assay: cryo-EM structure
[2] = molecular target: HIV-2 capsid (CA) protein carboxyl-terminal domain, CA residues 145-230 (HIV-2 ROD); assay: crystal structure

HIV-2 Gag polyprotein in immature particles (natural protein)
stoichiometry N [1]: 6

HIV-2 capsid (CA) protein carboxyl-terminal domain, CA residues 145-230 (domain or fragment)
stoichiometry N [2]: 2
